Test results: patent US20240101645A1 (HENRY M JACKSON FOUNDATION FOR THE ADVANCEMENT OF MILITARY …, published 2024)

T1: HCoV-HKU1 spike antigens (bead panel) (HCoV-HKU1, UniProt Q5MQD0 13-1300)
T1 sequence: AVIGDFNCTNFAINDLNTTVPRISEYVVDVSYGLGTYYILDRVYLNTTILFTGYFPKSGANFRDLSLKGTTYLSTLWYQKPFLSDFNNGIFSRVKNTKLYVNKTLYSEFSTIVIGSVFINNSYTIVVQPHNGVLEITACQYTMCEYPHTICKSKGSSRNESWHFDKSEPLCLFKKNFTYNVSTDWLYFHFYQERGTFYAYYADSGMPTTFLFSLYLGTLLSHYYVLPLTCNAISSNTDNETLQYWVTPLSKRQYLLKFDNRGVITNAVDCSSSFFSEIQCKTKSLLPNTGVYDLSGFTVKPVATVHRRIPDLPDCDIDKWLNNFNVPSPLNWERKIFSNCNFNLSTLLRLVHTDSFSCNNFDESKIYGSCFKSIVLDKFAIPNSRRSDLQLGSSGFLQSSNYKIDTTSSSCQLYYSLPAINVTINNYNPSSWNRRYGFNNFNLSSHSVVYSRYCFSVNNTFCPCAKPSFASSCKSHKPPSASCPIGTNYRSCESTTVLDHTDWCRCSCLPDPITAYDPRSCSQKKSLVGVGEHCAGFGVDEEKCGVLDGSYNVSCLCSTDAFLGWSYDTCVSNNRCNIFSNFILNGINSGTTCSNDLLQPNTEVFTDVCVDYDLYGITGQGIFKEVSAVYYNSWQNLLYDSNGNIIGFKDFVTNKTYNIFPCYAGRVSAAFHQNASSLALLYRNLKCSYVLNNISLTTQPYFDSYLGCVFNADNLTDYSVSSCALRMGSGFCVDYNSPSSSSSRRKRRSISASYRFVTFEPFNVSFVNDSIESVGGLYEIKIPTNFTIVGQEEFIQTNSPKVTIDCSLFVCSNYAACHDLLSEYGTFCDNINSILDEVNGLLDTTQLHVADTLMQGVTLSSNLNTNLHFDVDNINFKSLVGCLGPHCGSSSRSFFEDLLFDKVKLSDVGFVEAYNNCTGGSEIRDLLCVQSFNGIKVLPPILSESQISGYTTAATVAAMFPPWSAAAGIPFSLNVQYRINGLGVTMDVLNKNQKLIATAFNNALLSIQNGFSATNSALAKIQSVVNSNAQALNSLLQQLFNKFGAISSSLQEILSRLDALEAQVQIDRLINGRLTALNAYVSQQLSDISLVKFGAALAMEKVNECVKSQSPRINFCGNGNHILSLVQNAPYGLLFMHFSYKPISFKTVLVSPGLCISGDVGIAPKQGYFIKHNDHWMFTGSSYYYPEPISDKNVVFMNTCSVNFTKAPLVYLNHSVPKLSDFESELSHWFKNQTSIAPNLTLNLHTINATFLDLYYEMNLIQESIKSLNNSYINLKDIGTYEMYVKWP

T2: HCoV-NL63 spike antigens (bead panel) (HCoV-NL63, UniProt Q6Q1S2 19-1296)
T2 sequence: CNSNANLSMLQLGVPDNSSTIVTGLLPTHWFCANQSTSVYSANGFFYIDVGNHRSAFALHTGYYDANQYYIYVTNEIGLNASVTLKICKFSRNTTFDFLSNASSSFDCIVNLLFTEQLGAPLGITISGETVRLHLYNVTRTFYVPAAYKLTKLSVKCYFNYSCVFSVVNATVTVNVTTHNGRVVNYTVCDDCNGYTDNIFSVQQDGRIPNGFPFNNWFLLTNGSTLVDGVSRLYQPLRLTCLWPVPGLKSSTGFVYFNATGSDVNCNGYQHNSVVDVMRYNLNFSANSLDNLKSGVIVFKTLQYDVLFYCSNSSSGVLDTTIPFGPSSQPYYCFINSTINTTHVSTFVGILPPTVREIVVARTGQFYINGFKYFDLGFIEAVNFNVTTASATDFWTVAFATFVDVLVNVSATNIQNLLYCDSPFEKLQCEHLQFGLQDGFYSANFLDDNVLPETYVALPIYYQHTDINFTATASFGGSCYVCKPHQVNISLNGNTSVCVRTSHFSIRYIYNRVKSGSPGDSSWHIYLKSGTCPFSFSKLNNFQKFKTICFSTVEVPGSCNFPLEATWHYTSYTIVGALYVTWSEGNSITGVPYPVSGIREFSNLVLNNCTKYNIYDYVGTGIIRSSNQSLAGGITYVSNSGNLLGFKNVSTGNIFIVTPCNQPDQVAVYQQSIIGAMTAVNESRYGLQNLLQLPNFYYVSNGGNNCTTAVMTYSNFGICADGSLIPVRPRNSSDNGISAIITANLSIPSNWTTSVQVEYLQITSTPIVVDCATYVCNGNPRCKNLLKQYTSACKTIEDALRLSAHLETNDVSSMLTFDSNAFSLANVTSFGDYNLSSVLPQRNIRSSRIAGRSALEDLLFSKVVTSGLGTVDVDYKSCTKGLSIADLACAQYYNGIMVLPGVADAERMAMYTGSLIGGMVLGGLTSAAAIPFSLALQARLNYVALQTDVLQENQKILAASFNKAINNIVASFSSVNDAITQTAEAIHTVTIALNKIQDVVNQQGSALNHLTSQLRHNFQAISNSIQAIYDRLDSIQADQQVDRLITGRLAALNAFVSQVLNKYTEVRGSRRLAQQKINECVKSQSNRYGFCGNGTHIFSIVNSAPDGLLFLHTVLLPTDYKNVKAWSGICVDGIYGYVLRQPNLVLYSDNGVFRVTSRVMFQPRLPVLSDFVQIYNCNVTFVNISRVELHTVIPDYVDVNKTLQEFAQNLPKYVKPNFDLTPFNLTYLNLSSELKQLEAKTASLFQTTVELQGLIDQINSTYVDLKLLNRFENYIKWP


Columns and labels:
[1] = target: T1, HCoV-HKU1 spike antigens (bead panel); test: multiplex bead assay
[2] = target: T2, HCoV-NL63 spike antigens (bead panel); test: multiplex bead assay

Row | Binder | binding result [1] | binding result [2]
1 | COV_2057 (antibody, V domains shown, human IgG1) VH: EVQLVQSGAEVKKPGESLKISCKGSGYSFISYWIAWVRQMPGKGLEWMGIIYPGDSDTTYSPSFQGQVTISADKSISTAYLQWSSLKASDTAIYYCARLLYYSDSSPLDSWGQGTLVTVSS VL: DIQMTQSPSSLSASVGDRVTITCRASQSISTYLNWYQQKPGKAPNLLIYAASSLQSGVPSRFSGSGSGTDFTLTISSLQPEDFATYYCQQSHSTPRTFGPGTKVDIK | no binding | no binding
2 | COV_2100 (antibody, V domains shown, human IgG1) VH: EVQLVESGGGLVQPGGSLRLSCAASGFTFSSYDMYWVRQATGKGLEWVSAIGTAGDTYYPGSVKGRFTISRENAKNSLYLRMNSLRAGDTAVYFCARADKNTAMFFDYWGQGTLVTVSS VL: DIQMTQSPSSLSASVGDRVTITCRASQNINNFLHWYQQKPGNAPKLLIYAASTLQSGVPSRFSGSGSGTDFTLTISSLQPEDFATYYCQQSYSTPGGTFGGGTKVEIK | no binding | no binding
3 | COV_2103 (antibody, V domains shown, human IgG1) VH: EVQLVESGGGVVQPGRSLRLSCGASGFTFSSYGIHWVRQAPGKGLDWVAVIWHDGSQKYYGDSVKGRFTISRDNSKNTLYLQMNRLRAEDTAVYYCARDSGDDYDSSGYPIGNAFDLWGQGTMVTVSS VL: DIQMTQSPSTLSASVGDRVTITCRASQFINSWLAWYQQKPGKAPKLLIYKASSLETGVPSRFSGSGSGTEFTLTISSLQPDDFATYYCQQYNTYSFTFGPGTKVDIK | no binding | no binding
4 | COV_2134 (antibody, V domains shown, human IgG1) VH: EVQLVESGGGVVQPGRSLRLSCAASGFIFSSYGMYWVRQAPGKGLEWVAVIWYDGSNKYYADSVKGRFTISRDNSKNTLYLQMNSLRAEDTAVYYCARDLSSSSGWDDYYYYYGMDVWGQGTTVTVSS VL: not shown | no binding | no binding
5 | COV_2193 (antibody, V domains shown, human IgG1) VH: QVQLVQSGAEVKKPGASVKVSCKVSGYTLTDLSMHWVRQTPGKGLEWMGGFDAEDGETIYAQNFQGRVTMTEDTSIDVAYMELSSLRSEDTAVYYCATGSVGPDYWGQGTLVTVSS VL: SSELTQDPAVSVALGQTVRITCQGDSLRSYYASWFQQKPGQAPVLVIYLKNDRPSGIPDRFSGSSSGNTASLTITGAQAEDEADYYCNSRDSSGNHQVFGGGTKLTVL | no binding | no binding
6 | COV_2196 (antibody, V domains shown, human IgG1) VH: QVQLVQSGAEVKKPGASVKVSCKVSGYTLIELSMHWVRQAPGKGLEWMGGFDPEDAKTIYAQKFQGRVTMTEDTSTDTAYMELSSLTFEDTAVYYCATTPAFMAAAGDFDYWGQGTLVTVSS VL: QPVLTQPSSVSVSPGQTATITCSGDVLAKKYARWFQQKPGQAPMLVIYKDTERPSGIPERFSGSSSGTTVTLTINGAQVEDEADYYCYSAAAWVFGGGTKLTVL | no binding | no binding
7 | COV_3088 (antibody, V domains shown, human IgG1) VH: EVQLVESGGGLVQPGGSLRLSCAASGFTFSSYDMHWVRQATGKGLEWVSAIGTAGDTYYPGSVKGRFTISRENAKNSLYLQMNSLRAGDTAVYYCARGSGWPPFFDYWGQGTLVTVSS VL: SYELTQPPSVSVAPGKTARITCGGNNIGSKSVHWYQQKPGQAPVLVIYYDSDRPSGIPERFSGSNSGNTATLTISRVEAGDEADYYCQVWDSSSDHHWVFGGGTKLTVL | no binding | no binding
8 | COV_1050 (antibody, V domains shown, human IgG1) VH: QVQLVESGGGVVQPGRSLRLSCAASRFTFSSYAMHWVRQAPGKGLEWVAVISFDGSNKYYADSVKGRFTIFRDNSKNTLSLQMNSLRTEDTAMYYCASPAGYYESLWGQGTLVTVSS VL: SYELTQPPSVSVSPGQTARVTCSGDALSKQYGFWYQQKPGQAPTLVIYKDTERPSGIPERFSGSGSGTTVTLTISGVQAEDEADYYCQSTDNSGRWVFGGGTKLTVLG | no binding | no binding
